From paper PMC6005685 (Journal of molecular recognition : JMR, 2017)

B1: 6His-Grb7RA domain (domain or fragment, UniProt Q14451 102-187, looked up)
chain: HVVKVYSEDGACRSVEVAAGATARHVCEMLVQRAHALSDETWGLVECHPHLALERGLEDHESVVEVQAAWPVGGDSRFVFRKNFAK
B2: GST cleaved Grb7RA domain (domain or fragment)
chain: GSHVVKVYSEDGACRSVEVAAGATARHVCEMLVQRAHALSDETWGLVECHPHLALERGLEDHESVVEVQAAWPVGGDSRFVFRKNFAK

What was measured:
cross-linking = biological target: the molecule itself; test: cross-linking
SEC = biological target: the molecule itself; test: SEC

Protein | stoichiometry N (cross-linking) | stoichiometry N (SEC)
B1 | 2 | 3
B2 | 3 | 2
